Reference: the supplement of paper PMC10065799, “High-throughput profiling of sequence recognition by tyrosine kinases and SH2 domains using bacterial peptide display” (eLife, 2023)

target: SHP2-C SH2; assay: SH2 binding enrichment of the phosphorylated peptide, bacterial display (enrichment ratio); higher = better substrate or ligand; peptides without Tyr show the background
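Note: peptide library displayed on the E. coli surface as eCPX fusions, selected cells deep-sequenced, score is each peptide's frequency after selection divided by its frequency in the input.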

Sequence	SH2 binding enrichment
SYSGEYGGGGG [ZG16_Y30]	0.635
MENFIYESMRF [CYP19A1_Y361_YF]	0.677
PNRILYGDFQQ [MYH7_Y715_R719Q]	0.935
VFLGAYDCFLP [SLC22A5_Y486_R488C_YF]	0.749
SIKDKYVTALF [KCNH2_Y611_YF]	0.693
MGSYNYLGFAR [SPTLC2_Y178]	3.37
EAEPYYRSLRD [NPHS1_Y1139]	0.791
VLSIDYFFPPQ [AR_Y552_P549S_YF]	0.998
VDLSKCITTIA [FAS_Y232_Y232C]	0.529
RPSRWYQFPVA [ANOS1_Y259_R262P]	2.07
KLIETYFSKNY [PLP1_Y50]	0.461
SVVVPYERPEV [TP53_Y220_P222R]	0.57
SEEVNYATLTF [CLEC12B_Y7_T6N]	3.03
ATDLAYYLVRK [ASL_Y375]	0.988
FARNSYVAGQF [G6PD_Y107_YF]	0.517
GDEEDYFEIPG [EGFR_opt_F_2015]	0.632
PSGPMYRGAVP [ASAH1_Y43_T42M]	0.842
VQSASYLNDCL [MCM3AP_Y864_A867D]	0.875
PTTKTYFPQFD [HBA1_Y43_H46Q]	1.11
VGTKWYMAPEV [ACVRL1_Y375_R374W]	0.674

Second part, the sequence after the results:

SH2 binding enrichment	Sequence
0.729	SPFAVYRFFTF [RPGRIP1_Y826_YF]
1.96	CTTIHYYYMCN [TP53_Y234_N235Y]
0.799	TFTVSYLPDMS [FLNC_Y1602_YF]
0.637	GVIRHSVVCST [BTK_Y334_Y334S]
0.458	IRKKFYRAILE [CHD7_Y1218_Q1214R_YF]
0.617	ANQDDYISFRH [IMP4_Y226]
0.782	FFWDGYMPRQF [GSS_Y270_R267W_YF]
6.52	LTDRGYSFVTT [ACTA1_Y200_E197D]
0.722	TWSSSYRSDRL [CRYBB1_Y131]
0.559	AGKEEYSAMRD [HRAS_Y64_Q61K]
0.566	TLKDVYDDGKF [RPS6KA3_Y483_YF]
0.595	SKLTIYDARPS [MTM1_Y277]
1.1	YQLPYYNTVPS [BMPR1A_Y458_M460T]

target: c-Src SH2; assay: as above

Sequence	SH2 binding enrichment
SYSGEYGGGGG [ZG16_Y30]	0.495
MENFIYESMRF [CYP19A1_Y361_YF]	0.562
PNRILYGDFQQ [MYH7_Y715_R719Q]	0.503
VFLGAYDCFLP [SLC22A5_Y486_R488C_YF]	0.951
SIKDKYVTALF [KCNH2_Y611_YF]	0.433
MGSYNYLGFAR [SPTLC2_Y178]	2.54
EAEPYYRSLRD [NPHS1_Y1139]	0.775
VLSIDYFFPPQ [AR_Y552_P549S_YF]	0.852
VDLSKCITTIA [FAS_Y232_Y232C]	0.374
RPSRWYQFPVA [ANOS1_Y259_R262P]	1.71
KLIETYFSKNY [PLP1_Y50]	0.37
SVVVPYERPEV [TP53_Y220_P222R]	1.12
SEEVNYATLTF [CLEC12B_Y7_T6N]	0.391
ATDLAYYLVRK [ASL_Y375]	0.798
FARNSYVAGQF [G6PD_Y107_YF]	0.442
GDEEDYFEIPG [EGFR_opt_F_2015]	0.706
PSGPMYRGAVP [ASAH1_Y43_T42M]	0.472
VQSASYLNDCL [MCM3AP_Y864_A867D]	0.572
PTTKTYFPQFD [HBA1_Y43_H46Q]	0.59
VGTKWYMAPEV [ACVRL1_Y375_R374W]	0.737

The remaining lines, values ahead:

SH2 binding enrichment	Sequence
0.462	SPFAVYRFFTF [RPGRIP1_Y826_YF]
2.94	CTTIHYYYMCN [TP53_Y234_N235Y]
0.594	TFTVSYLPDMS [FLNC_Y1602_YF]
0.586	GVIRHSVVCST [BTK_Y334_Y334S]
0.433	IRKKFYRAILE [CHD7_Y1218_Q1214R_YF]
0.46	ANQDDYISFRH [IMP4_Y226]
0.81	FFWDGYMPRQF [GSS_Y270_R267W_YF]
10	LTDRGYSFVTT [ACTA1_Y200_E197D]
0.473	TWSSSYRSDRL [CRYBB1_Y131]
0.761	AGKEEYSAMRD [HRAS_Y64_Q61K]
0.433	TLKDVYDDGKF [RPS6KA3_Y483_YF]
0.466	SKLTIYDARPS [MTM1_Y277]
8.81	YQLPYYNTVPS [BMPR1A_Y458_M460T]
